According to patent US20100260668A1 (published 2010):

B1: DVD495 (DLL4/VEGF DVD-Ig) (bispecific antibody, human IgG1)
VH: EVQLQQSGPELVKPGASVKMSCKASGYTFTSYVINWVKQKPGQGLEWIGLINPYNDGTKYNEKFKVKATLTSDKSSSTAYMELSSLTSEDSAVYYCASYYYGSRYYFDYWGQGTTLTVSSASTKGPSVFPLAPEVQLVESGGGLVQPGGSLRLSCAASGFTISDYWIHWVRQAPGKGLEWVAGITPAGGYTYYADSVKGRFTISADTSKNTAYLQMNSLRAEDTAVYYCARFVFFLPYAMDYWGQGTLVTVSS
VL: DIQMTQSSSYLSVSLGGRVTITCKASDHINNWLAWYQQKPGNAPRLLISGATSLETGVPSRFSGSGSGKDYTLSITSLQTEDVATYYCQQYWSIPLTFGAGTKLELKRTVAAPSVFIFPPDIQMTQSPSSLSASVGDRVTITCRASQDVSTAVAWYQQKPGKAPKLLIYSASFLYSGVPSRFSGSGSGTDFTLTISSLQPEDFATYYCQQSYTTPPTFGQGTKVEIKR
notes: HC linker long, LC linker long; also called DVD495H; DVD495L
B2: DVD519 (DLL4/VEGF DVD-Ig) (bispecific antibody, human IgG1)
VH: EVQLQQSGPELEKPGASVKISCKASGYSFTGYNMNWVKQSNGKSLEWIGNIDPYFGGTNYNQKFKGKATLTVDKSSSTAYMQLKSLTSEDSAVYYCARNYDYDGGCFDYWGQGTTLTVSSASTKGPSVFPLAPEVQLVESGGGLVQPGGSLRLSCAASGFTISDYWIHWVRQAPGKGLEWVAGITPAGGYTYYADSVKGRFTISADTSKNTAYLQMNSLRAEDTAVYYCARFVFFLPYAMDYWGQGTLVTVSS
VL: QAVVTQESALTTSPGETVTLTCRSSTGAVTTSNYANWVQEKPDHLFTGLIGGTNNRAPGVPARFSGSLIGDKAALTITGAQTEDEAIYFCALWYSNHWVFGGGTKLTVLGQPKAAPSVTLFPPDIQMTQSPSSLSASVGDRVTITCRASQDVSTAVAWYQQKPGKAPKLLIYSASFLYSGVPSRFSGSGSGTDFTLTISSLQPEDFATYYCQQSYTTPPTFGQGTKVEIKR
notes: HC linker long, LC linker long; also called DVD519H; DVD519L
B3: DVD525 (DLL4/VEGF DVD-Ig) (bispecific antibody, human IgG1)
VH: B2 VH
VL: QAVVTQESALTTSPGETVTLTCRSSTGAVTTSNYANWVQEKPDHLFTGLIGGTNNRAPGVPARFSGSLIGDKAALTITGAQTEDEAIYFCALWYSNHWVFGGGTKLTVLGQPKAAPDIQMTQSPSSLSASVGDRVTITCRASQDVSTAVAWYQQKPGKAPKLLIYSASFLYSGVPSRFSGSGSGTDFTLTISSLQPEDFATYYCQQSYTTPPTFGQGTKVEIKR
notes: HC linker long, LC linker short; also called DVD525H; DVD525L
B4: DVD520 (VEGF/DLL4 DVD-Ig) (bispecific antibody, human IgG1)
VH: EVQLVESGGGLVQPGGSLRLSCAASGFTISDYWIHWVRQAPGKGLEWVAGITPAGGYTYYADSVKGRFTISADTSKNTAYLQMNSLRAEDTAVYYCARFVFFLPYAMDYWGQGTLVTVSSASTKGPSVFPLAPEVQLQQSGPELEKPGASVKISCKASGYSFTGYNMNWVKQSNGKSLEWIGNIDPYFGGTNYNQKFKGKATLTVDKSSSTAYMQLKSLTSEDSAVYYCARNYDYDGGCFDYWGQGTTLTVSS
VL: DIQMTQSPSSLSASVGDRVTITCRASQDVSTAVAWYQQKPGKAPKLLIYSASFLYSGVPSRFSGSGSGTDFTLTISSLQPEDFATYYCQQSYTTPPTFGQGTKVEIKRTVAAPSVFIFPPQAVVTQESALTTSPGETVTLTCRSSTGAVTTSNYANWVQEKPDHLFTGLIGGTNNRAPGVPARFSGSLIGDKAALTITGAQTEDEAIYFCALWYSNHWVFGGGTKLTVLG
notes: HC linker long, LC linker long; also called DVD520H; DVD520L
B5: DVD471 (DLL4/VEGF DVD-Ig) (bispecific antibody, human IgG1)
VH: EVQLVESGGGLVQPGGSLRLSCAASGFTFTDNWISWVRQAPGKGLEWVGYISPNSGFTYYADSVKGRFTISADTSKNTAYLQMNSLRAEDTAVYYCARDNFGGYFDYWGQGTLVTVSSASTKGPSVFPLAPEVQLVESGGGLVQPGGSLRLSCAASGFTISDYWIHWVRQAPGKGLEWVAGITPAGGYTYYADSVKGRFTISADTSKNTAYLQMNSLRAEDTAVYYCARFVFFLPYAMDYWGQGTLVTVSS
VL: DIQMTQSPSSLSASVGDRVTITCRASQDVSTAVAWYQQKPGKAPKLLIYSASFLYSGVPSRFSGSGSGTDFTLTISSLQPEDFATTYYCQQSYTGTVTFGQGTKVEIKRTVAAPSVFIFPPDIQMTQSPSSLSASVGDRVTITCRASQDVSTAVAWYQQKPGKAPKLLIYSASFLYSGVPSRFSGSGSGTDFTLTISSLQPEDFATYYCQQSYTTPPTFGQGTKVEIKR
notes: HC linker long, LC linker long; also called DVD471H; DVD471L
B6: DVD477 (DLL4/VEGF DVD-Ig) (bispecific antibody, human IgG1)
VH: B5 VH
VL: DIQMTQSPSSLSASVGDRVTITCRASQDVSTAVAWYQQKPGKAPKLLIYSASFLYSGVPSRFSGSGSGTDFTLTISSLQPEDFATTYYCQQSYTGTVTFGQGTKVEIKRTVAAPDIQMTQSPSSLSASVGDRVTITCRASQDVSTAVAWYQQKPGKAPKLLIYSASFLYSGVPSRFSGSGSGTDFTLTISSLQPEDFATYYCQQSYTTPPTFGQGTKVEIKR
notes: HC linker long, LC linker short; also called DVD477H; DVD477L
B7: DVD450 (VEGF/DLL4 DVD-Ig) (bispecific antibody, human IgG1)
VH: EVQLVESGGGLVQPGGSLRLSCAASGFTISDYWIHWVRQAPGKGLEWVAGITPAGGYTYYADSVKGRFTISADTSKNTAYLQMNSLRAEDTAVYYCARFVFFLPYAMDYWGQGTLVTVSSASTKGPSVFPLAPQVQLVQSGAEVKKPGASVKISCKASGYSFTAYYIHWVKQAPGQGLEWIGYISSYNGATNYNQKFKGRVTFTTDTSTSTAYMELRSLRSDDTAVYYCARDYDYDVGMDYWGQGTLVTVSS
VL: DIQMTQSPSSLSASVGDRVTITCRASQDVSTAVAWYQQKPGKAPKLLIYSASFLYSGVPSRFSGSGSGTDFTLTISSLQPEDFATYYCQQSYTTPPTFGQGTKVEIKRTVAAPSVFIFPPDIVMTQSPDSLAVSLGERATISCRASESVDNYGISFMKWFQQKPGQPPKLLIYAASNQGSGVPDRFSGSGSGTDFTLTISSLQAEDVAVYYCQQSKEVPWTFGGGTKVEIKR
notes: HC linker long, LC linker long; also called DVD450H; DVD450L
B8: DVD496 (VEGF/DLL4 DVD-Ig) (bispecific antibody, human IgG1)
VH: EVQLVESGGGLVQPGGSLRLSCAASGFTISDYWIHWVRQAPGKGLEWVAGITPAGGYTYYADSVKGRFTISADTSKNTAYLQMNSLRAEDTAVYYCARFVFFLPYAMDYWGQGTLVTVSSASTKGPSVFPLAPEVQLQQSGPELVKPGASVKMSCKASGYTFTSYVINWVKQKPGQGLEWIGLINPYNDGTKYNEKFKVKATLTSDKSSSTAYMELSSLTSEDSAVYYCASYYYGSRYYFDYWGQGTTLTVSS
VL: DIQMTQSPSSLSASVGDRVTITCRASQDVSTAVAWYQQKPGKAPKLLIYSASFLYSGVPSRFSGSGSGTDFTLTISSLQPEDFATYYCQQSYTTPPTFGQGTKVEIKRTVAAPSVFIFPPDIQMTQSSSYLSVSLGGRVTITCKASDHINNWLAWYQQKPGNAPRLLISGATSLETGVPSRFSGSGSGKDYTLSITSLQTEDVATYYCQQYWSIPLTFGAGTKLELKR
notes: HC linker long, LC linker long; also called DVD496H; DVD496L
B9: DVD472 (VEGF/DLL4 DVD-Ig) (bispecific antibody, human IgG1)
VH: EVQLVESGGGLVQPGGSLRLSCAASGFTISDYWIHWVRQAPGKGLEWVAGITPAGGYTYYADSVKGRFTISADTSKNTAYLQMNSLRAEDTAVYYCARFVFFLPYAMDYWGQGTLVTVSSASTKGPSVFPLAPEVQLVESGGGLVQPGGSLRLSCAASGFTFTDNWISWVRQAPGKGLEWVGYISPNSGFTYYADSVKGRFTISADTSKNTAYLQMNSLRAEDTAVYYCARDNFGGYFDYWGQGTLVTVSS
VL: DIQMTQSPSSLSASVGDRVTITCRASQDVSTAVAWYQQKPGKAPKLLIYSASFLYSGVPSRFSGSGSGTDFTLTISSLQPEDFATYYCQQSYTTPPTFGQGTKVEIKRTVAAPSVFIFPPDIQMTQSPSSLSASVGDRVTITCRASQDVSTAVAWYQQKPGKAPKLLIYSASFLYSGVPSRFSGSGSGTDFTLTISSLQPEDFATTYYCQQSYTGTVTFGQGTKVEIKR
notes: HC linker long, LC linker long; also called DVD472H; DVD472L
B10: DVD449 (DLL4/VEGF DVD-Ig) (bispecific antibody, human IgG1)
VH: QVQLVQSGAEVKKPGASVKISCKASGYSFTAYYIHWVKQAPGQGLEWIGYISSYNGATNYNQKFKGRVTFTTDTSTSTAYMELRSLRSDDTAVYYCARDYDYDVGMDYWGQGTLVTVSSASTKGPSVFPLAPEVQLVESGGGLVQPGGSLRLSCAASGFTISDYWIHWVRQAPGKGLEWVAGITPAGGYTYYADSVKGRFTISADTSKNTAYLQMNSLRAEDTAVYYCARFVFFLPYAMDYWGQGTLVTVSS
VL: DIVMTQSPDSLAVSLGERATISCRASESVDNYGISFMKWFQQKPGQPPKLLIYAASNQGSGVPDRFSGSGSGTDFTLTISSLQAEDVAVYYCQQSKEVPWTFGGGTKVEIKRTVAAPSVFIFPPDIQMTQSPSSLSASVGDRVTITCRASQDVSTAVAWYQQKPGKAPKLLIYSASFLYSGVPSRFSGSGSGTDFTLTISSLQPEDFATYYCQQSYTTPPTFGQGTKVEIKR
notes: HC linker long, LC linker long; also called DVD449H; DVD449L
B11: DVD455 (DLL4/VEGF DVD-Ig) (bispecific antibody, human IgG1)
VH: B10 VH
VL: DIVMTQSPDSLAVSLGERATISCRASESVDNYGISFMKWFQQKPGQPPKLLIYAASNQGSGVPDRFSGSGSGTDFTLTISSLQAEDVAVYYCQQSKEVPWTFGGGTKVEIKRTVAAPDIQMTQSPSSLSASVGDRVTITCRASQDVSTAVAWYQQKPGKAPKLLIYSASFLYSGVPSRFSGSGSGTDFTLTISSLQPEDFATYYCQQSYTTPPTFGQGTKVEIKR
notes: HC linker long, LC linker short; also called DVD455H; DVD455L

Tests used:
[1] = target: T1, DLL4 (DLL4 ECD/His tag, R&D Systems 1506-D4-050) (UniProt Q9NR61 27-529); test: Direct bind ELISA on DLL4; DLL4 domain N-term., HC long, LC long
T1 construct: extracellular domain; not shown: His tag

[2] = target: T1, DLL4 (DLL4 ECD/His tag, R&D Systems …); test: Direct bind ELISA on DLL4; DLL4 domain N-term., HC long, LC short
[3] = target: T1, DLL4 (DLL4 ECD/His tag, R&D Systems …); test: Direct bind ELISA on DLL4; DLL4 domain C-term., HC long, LC long

Row | Binder | EC50 [1] | EC50 [3] | also measured
1 | B1 | 0.33 nM | – | –
2 | B2 | 1.53 nM | – | –
3 | B3 | – | – | EC50 [2]: 1 nM
4 | B4 | – | 17.3 nM | –
5 | B5 | 0.89 nM | – | –
6 | B6 | – | – | EC50 [2]: 0.69 nM
7 | B7 | – | 1.99 nM | –
8 | B8 | – | 5.59 nM | –
9 | B9 | – | 2.78 nM | –
10 | B10 | 0.36 nM | – | –
11 | B11 | – | – | EC50 [2]: 0.24 nM
